The target in the experiment is His-Tagged human CD38 (recombinant) (human) (UniProt P28907). Nature of the experiment: SPR; Biacore T200, CM5 chip, 25 °C; His-tagged CD38 captured by immobilised anti-His antibody (human about 860 RU, mouse 1360 RU); AJ206 as analyte, 300 × 10^-9 M down to 1.2 × 10^-9 M; PBS-P + 1% DMSO, pH 7.4; 50 µL/min; contact 120 s, dissociation 360 s. Background: Surface plasmon resonance follows binding to a sensor surface in real time, without labels.

From PMC11040352, “CD38‐Specific Gallium‐68 Labeled Peptide Radiotracer Enables Pharmacodynamic Monitoring in Multiple Myeloma with PET” (Advanced Science, 2024) come the findings set out here.

For orientation: Kd means a measure of binding affinity in units of concentration.

Starred links: 1 amine or outer side, 2 acyl side, 3 side chain; linkers in the order of their positions; H or OH if unused. Positions of bridges follow the written chain, without caps; N, C: chain ends. Primed or numbered codes have the meaning given here. *: point of attachment. NOTA = O=C(O)CN1CCN(CC(=O)O)CCN(CC(=O)*)CC1; TBMB = c1c(C[*:1])cc(C[*:3])cc1C[*:2]; PEG3′ = not defined here

On to {NOTA-PEG3′}-ACVPCADFPIWYC-NH2 (linker 2-5-13 via TBMB) [AJ206], for which the equilibrium dissociation constant (Kd) amounted to 19.1 nM.
